Reference: patent US20110111454

Columns and labels:
[1] = target: [Tn]-MalE-hGH (UniProt P01241)
[2] = target: IFNα2b[Tn] (UniProt P01563)
[3] = test system: IFNα2b[Tn]-FCHASE

Chain of [Tn]-MalE-hGH (P01241 27-217): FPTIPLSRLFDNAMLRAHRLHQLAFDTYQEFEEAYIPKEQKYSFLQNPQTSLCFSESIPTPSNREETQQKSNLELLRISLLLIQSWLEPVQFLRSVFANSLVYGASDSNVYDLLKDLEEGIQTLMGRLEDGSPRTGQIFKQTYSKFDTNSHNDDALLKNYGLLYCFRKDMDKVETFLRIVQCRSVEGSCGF
Chain of IFNα2b[Tn] (P01563 whole entry, looked up): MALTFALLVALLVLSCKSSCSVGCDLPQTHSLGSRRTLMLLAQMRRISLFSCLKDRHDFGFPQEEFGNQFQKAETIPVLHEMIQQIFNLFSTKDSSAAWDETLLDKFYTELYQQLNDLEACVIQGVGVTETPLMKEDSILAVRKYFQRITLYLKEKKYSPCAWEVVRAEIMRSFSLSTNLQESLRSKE

## CgtB11168 (Δ30, C-terminal MalE)
[1]
  PNA blot after the galactosylation reaction: Increased staining in Lane D after PNA blotting

## CgtBOH4384 (Δ30, C-terminal MalE)
[2]
  MALDI mass of the galactosylated protein: The presence of the species at m/z 19665 is the proof that the IFNα2b[Tn] protein can be galactosylated by CJL-136
[3]
  CE-MS mass shift of the peptide: the molecular weight of IFNα2b[T-Ag]-FCHASE was 162 Dalton higher than that of IFNα2b[Tn]-FCHASE
  Specific Activity (mU/mg) on 1 mM IFNα2b[Tn]-FCHASE: 272 mU/mg
  percent of IFNα2b[Tn]-FCHASE converted into IFNα2b[T-Ag]-FCHASE after 30 minutes (capillary electrophoresis): 91.9% of the material had been converted into IFNα2b[T-Ag]-FCHASE

## CgtBOH4384 (Δ30, N-terminal MalE)
[3]
  Specific Activity (mU/mg) on 1 mM IFNα2b[Tn]-FCHASE: 14 mU/mg
